Source: patent US10172917B2, “Targeted oesophageal administration of ZN-α2-glycoproteins (ZAG), methods and formulations thereof” (ASTON UNIVERSITY, priority 2012, dated 2019)

Columns and labels:
[1] = target: T1, human β2-AR (Homo sapiens, UniProt P07550); experiment: Cyclic AMP production in CHO cells transfected with human β2-AR; assay type: cell-based; conditions: 30 min incubation
T1 construct: expressed in transfected cells; host or cells: CHOK1 (CHO-K1) cells
Protocol: (§1) FIG. 3C is a graphical representation of the effect of a tryptic digest of ZAG in comparison with intact ZAG on cyclic AMP production by CHO cells transfected with human β1-AR (▪), β2-AR(□) and β3-AR) ( ? ) after 30 min incubation. ZAG (1 mg) was incubated with trypsin (200 μg) in 1 ml 10 mM Tris.HCl, pH8 for 4 h at 37° C. and proteolysis was terminated by addition of the trypsin inhibitor (200 μg). High molecular weight material was removed by a Sephadex G25 column followed by dialysis using an Amicon filtration cell containing a 10 kDa cut-off membrane filter.
(§2) CHOK1 cells transfected with human β1-, β2- and β3-AR were maintained in DMEM supplemented with 2 mM glutamine, hygromycin B (50 μgml^−1), G418 ([…]) and 10% FCS, under an atmosphere of 10% CO2 in air. For cyclic AMP production cells were grown in 24-well plates in 1 ml nutrient medium, and ZAG, after tryptic digestion as described in the legend to FIG. 3C, was incubated for 30 min. The medium was then removed and 0.5 ml of 20 mM HEPES, pH7.5, 5 mM EDTA and 0.1 mM isobutylmethylxanthine was added, followed by heating on a water bath for 5 min, and cooling on ice for 10 min. The concentration of cyclic AMP was determined using a Parameter cyclic AMP assay kit (New England Biolabs, Hitchin, Herts, UK).

[2] = target: T2, β3-AR (Homo sapiens, UniProt P13945); experiment: Cyclic AMP production in CHO cells transfected with human β3-AR; assay type: cell-based; set-up: expressed in transfected cells; host or cells: CHOK1 (CHO-K1) cells; conditions: 30 min incubation
T2 sequence (P13945 whole entry): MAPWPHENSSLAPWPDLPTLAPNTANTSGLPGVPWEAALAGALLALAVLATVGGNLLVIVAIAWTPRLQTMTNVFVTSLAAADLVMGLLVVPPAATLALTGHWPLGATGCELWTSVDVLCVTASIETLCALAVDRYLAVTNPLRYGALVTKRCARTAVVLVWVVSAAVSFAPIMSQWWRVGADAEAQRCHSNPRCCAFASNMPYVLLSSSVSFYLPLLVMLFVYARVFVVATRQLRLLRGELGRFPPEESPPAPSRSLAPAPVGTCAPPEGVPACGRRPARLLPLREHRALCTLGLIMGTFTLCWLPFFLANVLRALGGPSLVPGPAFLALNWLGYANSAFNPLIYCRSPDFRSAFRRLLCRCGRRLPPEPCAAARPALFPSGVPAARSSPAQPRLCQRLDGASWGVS
Protocol: as §1, §2

[3] = target: T2, β3-AR; conditions: high affinity binding site on the β3-AR; previous studies; cited from earlier work
[4] = tested on: ob/ob mice; experiment: Oral ZAG in drinking water to ob/ob mice: body weight, rectal temperature, urinary glucose excretion; assay type: in vivo, mouse
Protocol: Obese (ob/ob) mice (average weight 65 g) were bred in a colony, and were kept in an air conditioned room at 22+2° C. with ad libitum feeding of a rat and mouse breeding diet (Special Diet Services, Witham, UK) and tap water. […] Animals were grouped (n=5) to receive either ZAG/PBS (50 μg day^−1), or PBS in their drinking water, the experiment was repeated three times after a power analysis was performed. […] The ZAG was replaced every 48 h. […] The dose of ZAG was chosen to be the same as that previously administered i.v. (1), so that a direct comparison could be made, between the two routes. Body weight, food and water intake, urinary glucose excretion, and body temperature, determined by the use of a rectal thermometer (RS Components, Northants, UK), were measured daily. A glucose tolerance test was performed on day 3. Animals were fasted for 12 h, followed by oral administration of glucose (1 gkg^−1 in a volume of 100 μl by gavage). Blood samples were removed from the tail vein at 15, 30, 60 and 120 min and used for the measurement of glucose. Urinary glucose was measured by collecting 0.5 ml urine and testing glucose concentration using a Boots glucose monitor. After 8 days of treatment the animals were terminated by cervical dislocation, tissues were removed and rapidly frozen in liquid nitrogen, and maintained at −80° C. Future work would be to repeat this work in diet-induced animals as alternative to a model with gene alteration, although previous studies have shown the ob/ob mouse to be a good indicator of potential human treatments. Animal studies were conducted under Home Office Licence according to the UKCCCR Guidelines for the care and use of laboratory animals.

[5] = tested on: ZAG mRNA; experiment: ZAG gene expression in mouse tissues by RT-PCR; assay type: in vivo; conditions: mice treated with ZAG orally; compared to stomach, small intestine or colon
Protocol: Total RNA was extracted from tissues (50-120 mg) and adipocytes with Trizol. RNA samples used for real-time PCR were treated with a DNA-free kit (Ambion) to remove any genomic DNA. The RNA concentration was determined from the absorbance at 260 nm. 1 μg of total RNA of each sample was reverse transcribed to cDNA in a final volume of 20 μl by using a Reverse-iT first strand kit (ABgene). 1 μl of each cDNA sample was then amplified in a PCR mixture containing 0.02 mM of each primer and 1.1⋅Reddy Mix PCR Master Mix (ABgene) in a final volume of 25 μl. Human b-actin was used as a house keeping gene. The PCR products were sequenced commercially to confirm their identity (MWG Biotech). (7)
Relative ZAG mRNA levels were quantified using real-time PCR with an ABI Prism 7700 Sequence Detector (Applied Biosystems). Mouse β-actin mRNA levels were similarly measured and served as the reference gene. Primers and Taqman probes were designed using PrimerExpress software (Applied Biosystems).

[6] = tested on: BAT of ob/ob mice; conditions: ob/ob mice after ZAG administration; cited from earlier work
[7] = tested on: ob/ob mice; experiment: Oral glucose tolerance test in ob/ob mice after 3 days of oral ZAG; assay type: in vivo, mouse
Protocol: Animals were grouped (n=5) to receive either ZAG/PBS (50 μg day^−1), or PBS in their drinking water, the experiment was repeated three times after a power analysis was performed. […] The ZAG was replaced every 48 h. One group of mice receiving ZAG were also administered propanolol (40 mgkg^−1, p.o.) daily. The dose of ZAG was chosen to be the same as that previously administered i.v. (1), so that a direct comparison could be made, between the two routes. Body weight, food and water intake, urinary glucose excretion, and body temperature, determined by the use of a rectal thermometer (RS Components, Northants, UK), were measured daily. A glucose tolerance test was performed on day 3. Animals were fasted for 12 h, followed by oral administration of glucose (1 gkg^−1 in a volume of 100 μl by gavage). Blood samples were removed from the tail vein at 15, 30, 60 and 120 min and used for the measurement of glucose. Urinary glucose was measured by collecting 0.5 ml urine and testing glucose concentration using a Boots glucose monitor. After 8 days of treatment the animals were terminated by cervical dislocation, tissues were removed and rapidly frozen in liquid nitrogen, and maintained at −80° C. […] Animal studies were conducted under Home Office Licence according to the UKCCCR Guidelines for the care and use of laboratory animals.

[8] = 50 μg day^−1 po in drinking water

B1: zinc-α2-glycoprotein (protein, listed as Homo sapiens)
chain: QENQDGRYSLTYIYTGLSKHVEDVPAFQALGSLNDLQFFRYNSKDRKSQPMGLWRQVEGMEDWKEDSQLQKAREDMETLKDIVEYYNDSNGSHVLQGRFGCEIENNRSSGAFWKYYYDGKDYIEFNKEIPAWVPFDPAAQITKQKWEAEPVYVQRAKAYLEEECPATLRKYLKYSKNILDRQDPPSVVVTSHQAPGEKKKLKCLAYDFYPGKIDVHWTRAGQVQEPELRGDVLHNGNGTYQSWVVVAVPPQDTAPYSCHVQHSSLAQPLVVPWEAS
notes: Recombinant human ZAG, a 41 kDa protein, produced by HEK293F cells transfected with pcDNA3.1 containing human ZAG
For B1, the “cyclic AMP production” value [1] is listed as “stimulated”, the “cyclic AMP production” value [2] is listed as “stimulated” and the Bmax [3] is listed as 282±1 fmole mg protein^−1. The Kd [3] was 78 ± 45 nM, the “increase in rectal temperature” value [4, 8] was 0.5 °C and the “reduction in urinary glucose excretion” value [4, 8] was 40%. The “loss of body weight / difference in body weight between ZAG and PBS groups” value ([4]; 50 μg day^−1 po in drinking water, after 8 days treatment) was 5 g, the “difference in body weight between the ZAG and PBS groups” value ([4]; 50 μg per day in drinking water, after 5 days of treatment) was 3.5 g and the “time of treatment after which increase in rectal temperature became significant” value ([4]; oral ZAG 50 μg per day) was 4 days. The “time of treatment after which reduction in urinary glucose excretion became significant” value ([4]; oral ZAG 50 μg per day) was 1 days, the “ZAG mRNA in oesophageal tissue” value [5] was “dramatically increased” and the “increase in oxygen uptake by BAT” value [6] was “three-fold”. The “insulin response to the glucose challenge” value ([7]; after 3 days of oral ZAG) was “decreased the insulin response”, the “peak blood glucose concentration in glucose tolerance test” value ([7]; after 3 days of oral ZAG) was “reduced peak blood glucose concentration” and the “reduction in the total area under the curve (AUC) during oral glucose tolerance test” value ([7]; after 3 days of oral ZAG, glucose 1 gkg^−1 po after 12 h fast) was 33%. For the same molecule, the sensitivity to insulin ([7]; oral ZAG 50 μg day^−1) was “increased sensitivity to insulin”.
